Measurements published in US20040171019A1, “PIN1 peptidyl-prolyl isomerase polypeptides, their crystal structures, and use thereof for drug design” (Agouron Pharmaceuticals, Inc., priority 2002, published 2004).

Tested on: Suc-AEPF-pNA peptide substrate
Test: Peptidyl-prolyl isomerase activity of PIN1 polypeptides without inhibitor
Type: biochemical
Conditions: 0.033 nM enzyme, 100 μM Suc-AEPF-pNA
Description: PIN1 is a phosphorylation dependent peptidyl-prolyl isomerase. Peptidyl-prolyl ismomerase activity for the peptides of the invention can be measured using a spectrophotometric assay based on the coupled chymotrypsin catalyzed, cis-trans conformation dependent cleavage of a para-nitroanaline-containing peptide substrate. This rotamase assay is described by Kofron et al. (Biochemistry 30, […] (1991)) and its application to PIN1 isomerase activity is described by Yaffe et al. (Science 278, 1957-1960 (1997)). Cleavage of the isomerized peptide releases para-nitroanaline, which can be monitored by an increase in absorbance at 390 nm. The PIN1 peptide substrate, succinyl-alanine-[…]-proline-phenylalanine-paranitroaniline (Suc-AEPF-pNA) (Bachem California, Inc., Torrence, Calif.) is kept in a predominantly cis conformation with an anhydrous TFE (trifluorethanol)/LiCl (lithium chloride) solvent mixture. […]
Peptidyl-prolyl isomerase reactions were carried out in 25 mM MOPS [3-(N-Morpholino)propanesufonic acid], pH 7.5, 0.5 mM TCEP [Tris(2-carboxyethyl)phosphine hydrochloride], 2% DMSO, 5 μl of a 25 mg/ml solution of Subtilisin Carlsberg Protease (Sigma), […], and 100 μM Suc-AEPF-pNA peptide substrate. […] The absorbance at 390 nm was monitored continuously until all substrate had been converted to the cleaved product. […]

- rate: 0.2
B1: mutant PIN1 PPIase (K77Q/K82Q): mutant PIN1 PPIase polypeptide (SEQ ID NO:4) devoid of the WW domain, with K77Q and K82Q substitutions (protein)
chain: GSHMGKNGQGEPARVRCSHLLVKHSQSRRPSSWRQEQITRTQEEALELINGYIQKIKSGEEDFESLASQFSDCSSAKARGDLGAFSRGQMQKPFEDASFALRTGEMSGPVFTDSGIHIILRTE
